Experimental data: paper PMC8280356, “Purification and Characterization of Nit_(phym), a Robust Thermostable Nitrilase From Paraburkholderia phymatum” (Frontiers in Bioengineering and Biotechnology, 2021)

Biological target: the molecule itself
Assay: SEC; analytical gel filtration on Superdex 200 Increase 10/300 GL; 100 uL of purified protein at 3.9 mg/mL; mobile phase 50 mM Tris-HCl pH 8.0, 0.15 mM NaCl, 10% glycerol, 0.3 mL/min; elution volume compared to a calibration curve of proteins of known molecular weight

B1: Nit_(phym), nitrilase from Paraburkholderia phymatum DSM 17167 (enzyme, UniProt B2JQY2 1-340, looked up)
chain: MSDQRVIRAAAVQIAPDFERPGGTLDRVCAAIDEAASKGVQLIVFPETFVPYYPYFSFVRPPVASGADHMRLYEQAVVVPGPVTHAVSERARRHAMVVVLGVNERDHGSLYNTQLVFDIDGCQVLKRRKITPTFHERMIWGQGDAAGLKVARTGIARVGALACWEHYNPLARYALMTQHEEIHCSQFPGSLVGPIFAEQIEVTIRHHALESGCFVVNSTGWLSDAQIESVTTDPKLQKALRGGCMTAIVSPEGQHLAEPLREGEGMVVADLDMALITKRKRMMDSVGHYARPELLSLAINDRPAMPVVPMSMSFERAGADVAPEIISGGQDECQHEPVAG
notes: nitrilase Nit_(phym) (NIT188) from Paraburkholderia phymatum DSM 17167, Uniprot ID B2JQY2; subunit with an apparent molecular mass of 37 kDa on SDS-PAGE; also called NIT188
B1 was tested. Which “stoichiometry N” value did it give?
The value was > 18 subunits.
